Measurements published in patent US12060433B2, “CD73 inhibitor and A2A/A2B adenosine receptor inhibitor combination therapy” (Incyte Corporation, priority 2020, dated 2024).

What was measured:
[1] = molecular target: T1, human CD73 (SEQ ID NO: 70) (Homo sapiens, UniProt P21589); experiment: SPR (Biacore 8K) binding affinity and kinetics to human CD73
T1 construct: purchased BPS Bioscience
T1 sequence (P21589 27-549): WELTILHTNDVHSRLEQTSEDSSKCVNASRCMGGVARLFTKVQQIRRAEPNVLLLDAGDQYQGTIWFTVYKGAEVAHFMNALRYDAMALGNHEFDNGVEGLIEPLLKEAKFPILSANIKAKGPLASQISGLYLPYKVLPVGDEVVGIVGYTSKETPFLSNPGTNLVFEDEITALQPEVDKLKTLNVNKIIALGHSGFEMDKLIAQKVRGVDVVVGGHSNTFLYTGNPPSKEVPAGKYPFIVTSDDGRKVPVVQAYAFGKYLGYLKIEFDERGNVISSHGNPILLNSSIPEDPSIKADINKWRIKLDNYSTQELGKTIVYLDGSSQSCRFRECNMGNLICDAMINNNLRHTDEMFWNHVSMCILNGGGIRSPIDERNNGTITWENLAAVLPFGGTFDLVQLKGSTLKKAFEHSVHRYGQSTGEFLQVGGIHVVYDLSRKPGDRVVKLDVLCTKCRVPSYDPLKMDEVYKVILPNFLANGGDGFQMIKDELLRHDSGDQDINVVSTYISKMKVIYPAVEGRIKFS
Method: The SPR running buffer (10 mM HEPES, 150 mM NaCl, 3 mM EDTA and 0.05% v/v Surfactant P20, pH 7.4) was prepared from 10×HBS-EP Buffer (GE Healthcare). Anti-human Fc antibodies (GE Healthcare) were immobilized via amine coupling on all sixteen flow cells of an S series sensor chip CM5 (GE Healthcare). The immobilization levels were ˜9000 RU for all flow cells. The desired capturing level of anti-CD73 antibody was achieved by flowing appropriate concentration of anti-CD73 antibody through the active flow cell of each channel. The non-cleavable ADP analogue APCP (adenosine-5′-(α,β-methylene) diphosphate) with the presence of Zn^2+ can be used to shift the CD73 conformational equilibrium from open towards closed. Therefore, recombinant CD73 was incubated with SPR running buffer in the presence of 100 μM APCP and 10 μM ZnCl2 (closed SPR running buffer) to study the binding of anti-CD73 antibody to the CD73 in the closed conformation. To achieve this, the ABA injection feature in Biacore 8K was used. For open conformation, the ABA injection sequence started with 60 seconds injection of running buffer. Then, CD73 3-fold serial dilution concentration series prepared from CD73 stock (BPS Bioscience) and running buffer were injected for 180 seconds immediately followed by running buffer for 240 seconds. For closed conformation, the normal SPR running buffer was replaced by closed SPR running buffer. Surface was regenerated with 30 seconds injection of 3 M MgCl2. […] Binding affinities and kinetic association and dissociation rate constants to human, cynomolgus, and mouse CD73 in either open or closed conformations are shown in Table 8 below. The results in Table 8 ensure cynomolgus pharmacokinetic data will reflect human pharmacokinetic data.
Binding affinities and kinetic association and dissociation rate constants to human, cynomolgus, and mouse CD73 in either open or closed conformations are shown in Table 9 below.

[2] = molecular target: T2, cell surface CD73 on MDA-MB-231 cells (Homo sapiens, UniProt P21589); experiment: Binding to cell surface CD73 by flow cytometry (GMFI), MDA-MB-231 cells; format: cell-based; conditions: high levels of surface CD73
T2 construct: endogenous in cells; host or cells: MDA-MB-231
T2 sequence (P21589 27-549): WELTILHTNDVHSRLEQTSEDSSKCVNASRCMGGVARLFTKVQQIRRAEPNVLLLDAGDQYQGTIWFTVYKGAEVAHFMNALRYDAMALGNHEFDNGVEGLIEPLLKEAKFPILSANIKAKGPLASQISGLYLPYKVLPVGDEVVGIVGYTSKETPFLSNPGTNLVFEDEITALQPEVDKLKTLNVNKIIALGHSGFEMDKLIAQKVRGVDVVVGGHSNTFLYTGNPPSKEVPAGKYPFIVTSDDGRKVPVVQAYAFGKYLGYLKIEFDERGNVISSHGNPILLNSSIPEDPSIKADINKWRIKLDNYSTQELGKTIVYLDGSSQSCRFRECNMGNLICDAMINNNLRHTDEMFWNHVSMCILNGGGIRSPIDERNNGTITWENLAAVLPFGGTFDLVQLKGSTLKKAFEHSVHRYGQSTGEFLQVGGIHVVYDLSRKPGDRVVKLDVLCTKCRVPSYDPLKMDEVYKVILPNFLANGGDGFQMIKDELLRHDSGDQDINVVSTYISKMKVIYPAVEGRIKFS
Method: To test the binding of humanized and non-humanized CL25 clones to cell surface CD73, MDA-MB-231 or A375 cells were washed and added to 96-well plates at 5×10^4 cells/well. The cells were stained with the indicated concentration of antibodies for 30 minutes on ice (FIG. 2A and FIG. 2B). Next, the cells were washed and stained using goat anti-mouse secondary conjugated to phycoerythrin (PE) for 30 minutes on ice. The cells were then washed and analyzed by flow cytometry. Geometric mean fluorescence intensity (GMFI) of CD73 staining was graphed (FIG. 2A and FIG. 2B).
Cells were stained with the indicated concentration of antibodies for 1 hour on ice. Cells were then washed and stained goat anti-mouse secondary conjugated to PE for 30 minute on ice. Cells were then washed and analyzed by flow cytometry. The GMFI of CD73 staining is graphed (FIG. 13).

[3] = molecular target: T3, cellular CD73 on A375 cells (Homo sapiens, UniProt P21589); experiment: Cellular CD73 inhibition (AMP-Glo), A375 cells; format: cell-based; conditions: 100 μM AMP, 3 hours
T3 construct: endogenous in cells; host or cells: A375
T3 sequence (P21589 27-549): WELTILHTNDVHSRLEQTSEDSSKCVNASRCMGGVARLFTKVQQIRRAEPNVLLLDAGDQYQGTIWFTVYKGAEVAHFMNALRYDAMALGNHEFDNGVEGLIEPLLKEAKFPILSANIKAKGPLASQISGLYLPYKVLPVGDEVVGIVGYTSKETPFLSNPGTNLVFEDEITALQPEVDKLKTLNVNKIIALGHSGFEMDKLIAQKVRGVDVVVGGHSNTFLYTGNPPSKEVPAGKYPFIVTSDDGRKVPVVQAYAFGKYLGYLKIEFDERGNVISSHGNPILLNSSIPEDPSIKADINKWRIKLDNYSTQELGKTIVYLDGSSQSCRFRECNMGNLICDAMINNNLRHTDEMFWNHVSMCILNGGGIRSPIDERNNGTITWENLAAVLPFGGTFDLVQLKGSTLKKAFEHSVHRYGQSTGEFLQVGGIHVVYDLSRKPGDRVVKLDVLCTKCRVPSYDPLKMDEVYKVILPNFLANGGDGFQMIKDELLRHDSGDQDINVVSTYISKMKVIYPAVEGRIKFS
Method: To measure ability of anti-CD73 antibody to inhibit CD73 activity on cells, A375 and MDA-MB-231 cells were washed with serum free RPMI media (ThermoFisher) and plated in 96-well plates at a concentration of 8×10^4 cells/well for A375 or 1×10^4 cells/well for MDA-MB-231. The cells were incubated with the indicated concentration of antibodies or APCP at 37° C. 5% C02 for 30 minutes (FIG. 3A, FIG. 3B, and FIG. 3C). Next, adenosine monophosphate (AMP) was added to a final concentration of 100 μM and cells were incubated an additional 3 hours at 37° C. 5% CO2. Plates were centrifuged for 1-2 minutes at 300 g and 25 μL of supernatant was transferred into a new 96-well plates. AMP-Glo Assay was used according to the manufacturer's instructions (Promega). Relative luminescence unit (RLU) is directly correlated with the AMP concentration in this assay. Results are depicted in FIG. 3A, FIG. 3B, and FIG. 3C. The ability of 3-[…] to inhibit CD73 activity on cells was evaluated as described in Example 3, above. Results are depicted in FIG. 8A and FIG. 8B.

[4] = molecular target: T4, recombinant human CD73 (rhuCD73) (SEQ ID NO:70) (Homo sapiens, UniProt P21589); experiment: Soluble CD73 inhibition (AMP-Glo); format: biochemical; conditions: 0.008 μg/mL rhuCD73, 100 μM AMP
T4 sequence (P21589 27-549): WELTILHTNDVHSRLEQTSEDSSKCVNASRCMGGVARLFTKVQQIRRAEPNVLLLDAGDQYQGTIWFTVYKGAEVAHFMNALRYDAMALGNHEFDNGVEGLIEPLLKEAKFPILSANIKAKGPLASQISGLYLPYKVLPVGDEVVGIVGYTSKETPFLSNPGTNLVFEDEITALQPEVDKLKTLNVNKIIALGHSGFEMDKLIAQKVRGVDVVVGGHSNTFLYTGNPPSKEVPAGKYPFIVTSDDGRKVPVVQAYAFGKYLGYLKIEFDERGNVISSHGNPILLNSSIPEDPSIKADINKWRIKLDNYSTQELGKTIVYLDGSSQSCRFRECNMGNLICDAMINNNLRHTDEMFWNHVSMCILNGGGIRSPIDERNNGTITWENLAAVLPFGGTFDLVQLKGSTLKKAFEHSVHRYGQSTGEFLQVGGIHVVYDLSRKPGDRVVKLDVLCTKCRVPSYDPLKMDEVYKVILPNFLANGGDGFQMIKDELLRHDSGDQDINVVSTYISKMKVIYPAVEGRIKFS
Method: To measure the ability of the CD73 antibodies to inhibit CD73 activity of recombinant protein, recombinant human CD73 (rhuCD73) (SEQ ID NO:70) was added to 96-well plates at a final concentration of 0.008 μg/mL with the indicated concentration of antibodies (FIG. 4) or adenosine 5′-[α,β-methylene]diphosphate (APCP) and incubated at 37° C. 5% CO2 for 30 minutes. After the 30 minute incubation, AMP was added to a final concentration of 100 μM and the reactions were incubated an additional 3 hours at 37° C. 5% CO2. 25 μL of supernatant was transferred into new 96-well plates. The AMP-Glo Assay was used according to the manufacturer's instructions. RLU is a directly correlated with the AMP concentration in this assay. Results are depicted in FIG. 4.
Results are depicted in FIG. 9.

human CD73 = molecular target: T5, human CD73 (Homo sapiens, UniProt P21589); experiment: Epitope mapping by hydrogen-deuterium exchange mass spectrometry (HDX); conditions: Fab in complex with CD73
T5 sequence (P21589 27-549 limits assumed): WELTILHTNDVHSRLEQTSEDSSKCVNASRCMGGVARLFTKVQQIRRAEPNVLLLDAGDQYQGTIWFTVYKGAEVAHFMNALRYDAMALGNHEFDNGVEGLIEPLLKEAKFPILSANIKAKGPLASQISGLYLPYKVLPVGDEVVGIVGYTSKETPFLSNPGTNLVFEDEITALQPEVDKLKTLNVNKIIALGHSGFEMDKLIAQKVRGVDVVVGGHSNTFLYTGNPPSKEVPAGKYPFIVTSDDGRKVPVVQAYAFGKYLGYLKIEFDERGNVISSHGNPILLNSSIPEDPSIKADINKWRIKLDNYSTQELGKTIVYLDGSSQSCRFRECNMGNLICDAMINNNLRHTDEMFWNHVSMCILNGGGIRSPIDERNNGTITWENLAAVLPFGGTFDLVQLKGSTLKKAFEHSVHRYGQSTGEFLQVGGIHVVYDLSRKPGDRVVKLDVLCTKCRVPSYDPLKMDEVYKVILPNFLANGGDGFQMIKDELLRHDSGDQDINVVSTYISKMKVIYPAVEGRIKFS
Method: To map the epitope of CL25, Hydrogen-deuterium exchange mass spectrometry (HDX) was performed. CD73 was incubated in deuterium oxide either alone or in complex with CL25 Fab. The deuterium exchange was carried out at 20° C. for 0 seconds, 60 seconds, 600 seconds, or 3600 seconds. The exchange reaction was quenched by low pH and the proteins were digested with pepsin/protease VIII. The deuterium levels at the identified peptides were monitored from the mass shift on LC-MS. The deuterium buildup curves over exchange time for all the peptides were plotted vs time. Peptides with significant reduction in deuterium uptakes upon binding to Fab were assigned as the epitopes for each antibody.

[5] = human CD73, closed conformation (100 μM APCP, 10 μM ZnCl2)
[6] = human CD73, open conformation, 25° C.

B1: CL25: chimeric anti-human CD73 monoclonal antibody, murine VH SEQ ID NO:26 and VL SEQ ID NO:27 with human IgG1 Fc (antibody, V domains shown)
VH: QVQLQQSGAELARPGASVKLSCRASGYTFTSYGLSWVKQRTGQGLEWIGEIYPGSGNTYYNEKFKGKATLTADKSSSTAYMELRSLTSEDSAVYFCARYDYLGSSYGFDYWGQGTTLTVSS
VL: DIVMTQSHKFMSTSVGDRVSITCKASQDVSTAVAWYQQKPGQSPKLLIYSASYRYNGVPDRFTGSGSGTDFTFTISSVQAEDLAVYYCQQHYNTPYTFGGGTKLEIK
modifications: human IgG1 Fc constant regions without entry
In the case of B1, the ka [1, 5] is reported as 903000 M⁻¹ s⁻¹, the kd [1, 5] is reported as 0.000344 s⁻¹ and the ka [1, 6] is reported as over 1e+06 M⁻¹ s⁻¹. The kd [1, 6] was 0.000394 s⁻¹, the “cell binding (GMFI)” value [2] was “high potency binding” and the “cellular CD73 inhibition” value [3] was “good potency”. For the same molecule, the “hook-effect in inhibition of recombinant CD73” value [4] was “no hook-effect”, the “inhibition of recombinant CD73” value [4] was “high potency” and the “epitope determined by HDX-MS” value (human CD73) was “TKVQQIRRAEPNVL”.
